What is called EC50 is the concentration that produces a half-maximal response. A low value points to an effect from little substance.

11 molecules from US20220267436A1 (published 2022) can be followed below.

For assay [1], the target named is human CD47 (human, UniProt Q08722 19-323). In words: flow.
The target of assay [2] is T1, human LAG-3 (human, UniProt P18627 23-525).
T1 chain: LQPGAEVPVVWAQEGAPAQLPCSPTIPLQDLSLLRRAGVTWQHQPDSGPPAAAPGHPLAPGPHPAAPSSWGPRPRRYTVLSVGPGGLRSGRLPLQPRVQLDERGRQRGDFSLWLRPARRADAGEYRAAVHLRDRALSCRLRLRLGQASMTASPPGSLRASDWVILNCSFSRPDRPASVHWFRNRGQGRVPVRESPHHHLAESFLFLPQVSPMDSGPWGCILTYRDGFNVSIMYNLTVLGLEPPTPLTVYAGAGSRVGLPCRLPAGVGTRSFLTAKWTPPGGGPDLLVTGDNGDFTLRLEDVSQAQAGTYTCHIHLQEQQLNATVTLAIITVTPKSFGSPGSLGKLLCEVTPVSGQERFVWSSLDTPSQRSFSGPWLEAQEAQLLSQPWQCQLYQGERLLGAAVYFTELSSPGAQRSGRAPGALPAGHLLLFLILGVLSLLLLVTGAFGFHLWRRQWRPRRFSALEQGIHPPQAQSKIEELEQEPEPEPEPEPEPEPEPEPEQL
As to the kind of experiment: flow cytometry, CHO-K1 cells expressing human LAG-3; FIG. 1.

Assay [3] concerns the target T1, human LAG-3. In words: flow cytometry, CHO-K1 cells expressing human LAG-3; FIG. 2. (In general: In flow cytometry, cells or beads pass a laser one at a time.)

human CD47, sequence (Q08722 19-323): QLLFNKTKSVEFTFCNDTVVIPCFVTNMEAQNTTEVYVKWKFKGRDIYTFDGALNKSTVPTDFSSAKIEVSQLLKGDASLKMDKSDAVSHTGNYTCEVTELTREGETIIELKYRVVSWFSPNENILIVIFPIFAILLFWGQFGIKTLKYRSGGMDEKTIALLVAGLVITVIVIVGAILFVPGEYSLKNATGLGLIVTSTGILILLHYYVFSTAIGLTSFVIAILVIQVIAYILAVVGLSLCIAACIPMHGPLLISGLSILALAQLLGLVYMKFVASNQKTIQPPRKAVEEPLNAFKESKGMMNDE

B1: bispecific antibody LAG3-E-HC (bispecific antibody)
heavy: not shown
light: EIVLTQSPATLSLSPGERATLSCRASENVGTYISWYQQKPGQAPRLLIYGASNRYTGIPARFSGSGSGTDFTLTISSLEPEDFAVYYCGESYGHLYTFGGGTKVEIKRTVAAPSVFIFPPSDEQLKSGTASVVCLLNNFYPREAKVQWKVDNALQSGNSQESVTEQDSKDSTYSLSSTLTLSKADYEKHKVYACEVTHQGLSSPVTKSFNRGEC
Consider B1, for which the figures for the EC50 in assay [1] and in assay [2] were 1.17 nM and 0.8 nM, respectively.

B2: bispecific antibody LAG3-G9-HN (bispecific antibody)
heavy: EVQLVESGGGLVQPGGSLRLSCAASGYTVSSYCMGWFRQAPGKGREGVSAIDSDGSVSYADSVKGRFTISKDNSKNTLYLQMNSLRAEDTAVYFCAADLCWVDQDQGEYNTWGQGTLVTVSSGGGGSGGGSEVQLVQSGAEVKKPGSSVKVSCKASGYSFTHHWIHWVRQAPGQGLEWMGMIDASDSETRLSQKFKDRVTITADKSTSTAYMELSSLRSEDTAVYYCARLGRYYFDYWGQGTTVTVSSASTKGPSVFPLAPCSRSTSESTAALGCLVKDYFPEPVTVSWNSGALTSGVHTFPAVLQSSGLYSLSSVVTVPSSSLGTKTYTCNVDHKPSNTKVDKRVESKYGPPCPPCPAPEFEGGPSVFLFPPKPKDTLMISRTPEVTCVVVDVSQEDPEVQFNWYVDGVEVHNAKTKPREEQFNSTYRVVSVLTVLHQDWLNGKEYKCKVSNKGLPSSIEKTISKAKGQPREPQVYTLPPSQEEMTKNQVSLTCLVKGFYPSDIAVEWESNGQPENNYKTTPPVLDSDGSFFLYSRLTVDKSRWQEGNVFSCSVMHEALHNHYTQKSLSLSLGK
light: EIVLTQSPATLSLSPGERATLSCRASENVGTYISWYQQKPGQAPRLLIYGASNRYTGIPARFSGSGSGTDFTLTISSLEPEDFAVYYCGESYGHLYTFGGGTKVEIKRTVAAPSVFIFPPSDEQLKSGTASVVCLLNNFYPREAKVQWKVDNALQSGNSQESVTEQDSKDSTYSLSSTLTLSKADYEKHKVYACEVTHQGLSSPVTKSFNRGEC
In the case of B2, the half-maximal effective concentration (EC50) in assay [1] is 3.96 nM; in assay [2], 0.477 nM.

B3: bispecific antibody LAG3-G15-HC (bispecific antibody)
heavy: not shown
light: EIVLTQSPATLSLSPGERATLSCRASENVGTYISWYQQKPGQAPRLLIYGASNRYTGIPARFSGSGSGTDFTLTISSLEPEDFAVYYCGESYGHLYTFGGGTKVEIKRTVAAPSVFIFPPSDEQLKSGTASVVCLLNNFYPREAKVQWKVDNALQSGNSQESVTEQDSKDSTYSLSSTLTLSKADYEKHKVYACEVTHQGLSSPVTKSFNRGEC
On to B3, for which the EC50 was 0.911 nM in assay [1] and 0.672 nM in assay [2].

B4: bispecific antibody LAG3-G9-HC (bispecific antibody)
heavy: not shown
light: EIVLTQSPATLSLSPGERATLSCRASENVGTYISWYQQKPGQAPRLLIYGASNRYTGIPARFSGSGSGTDFTLTISSLEPEDFAVYYCGESYGHLYTFGGGTKVEIKRTVAAPSVFIFPPSDEQLKSGTASVVCLLNNFYPREAKVQWKVDNALQSGNSQESVTEQDSKDSTYSLSSTLTLSKADYEKHKVYACEVTHQGLSSPVTKSFNRGEC
For the molecule B4, the concentration for a half-maximal effect (EC50) in assay [1] was 0.865 nM; in assay [2], 0.602 nM.

B5: bispecific antibody LAG3-E-HN (bispecific antibody)
heavy: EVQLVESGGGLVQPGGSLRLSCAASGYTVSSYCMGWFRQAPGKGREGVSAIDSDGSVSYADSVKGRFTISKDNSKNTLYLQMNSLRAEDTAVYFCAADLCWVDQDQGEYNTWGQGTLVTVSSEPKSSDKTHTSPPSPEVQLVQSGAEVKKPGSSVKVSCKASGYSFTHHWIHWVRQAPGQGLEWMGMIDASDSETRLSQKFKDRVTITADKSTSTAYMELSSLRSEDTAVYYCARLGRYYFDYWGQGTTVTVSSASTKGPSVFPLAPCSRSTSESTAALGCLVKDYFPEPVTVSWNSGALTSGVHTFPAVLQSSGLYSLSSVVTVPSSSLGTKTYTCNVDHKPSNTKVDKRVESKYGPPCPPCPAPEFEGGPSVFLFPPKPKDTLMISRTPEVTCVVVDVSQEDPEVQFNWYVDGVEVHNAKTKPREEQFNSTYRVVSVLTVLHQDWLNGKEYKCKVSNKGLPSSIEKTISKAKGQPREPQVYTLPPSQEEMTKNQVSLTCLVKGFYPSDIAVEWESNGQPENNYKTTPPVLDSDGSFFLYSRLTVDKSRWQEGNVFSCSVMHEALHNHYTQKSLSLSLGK
light: EIVLTQSPATLSLSPGERATLSCRASENVGTYISWYQQKPGQAPRLLIYGASNRYTGIPARFSGSGSGTDFTLTISSLEPEDFAVYYCGESYGHLYTFGGGTKVEIKRTVAAPSVFIFPPSDEQLKSGTASVVCLLNNFYPREAKVQWKVDNALQSGNSQESVTEQDSKDSTYSLSSTLTLSKADYEKHKVYACEVTHQGLSSPVTKSFNRGEC
For B5, the figures for the EC50 in assay [1] and in assay [2] were 4.44 nM and 0.526 nM, respectively.

B6: bispecific antibody LAG3-G15-HN (bispecific antibody)
heavy: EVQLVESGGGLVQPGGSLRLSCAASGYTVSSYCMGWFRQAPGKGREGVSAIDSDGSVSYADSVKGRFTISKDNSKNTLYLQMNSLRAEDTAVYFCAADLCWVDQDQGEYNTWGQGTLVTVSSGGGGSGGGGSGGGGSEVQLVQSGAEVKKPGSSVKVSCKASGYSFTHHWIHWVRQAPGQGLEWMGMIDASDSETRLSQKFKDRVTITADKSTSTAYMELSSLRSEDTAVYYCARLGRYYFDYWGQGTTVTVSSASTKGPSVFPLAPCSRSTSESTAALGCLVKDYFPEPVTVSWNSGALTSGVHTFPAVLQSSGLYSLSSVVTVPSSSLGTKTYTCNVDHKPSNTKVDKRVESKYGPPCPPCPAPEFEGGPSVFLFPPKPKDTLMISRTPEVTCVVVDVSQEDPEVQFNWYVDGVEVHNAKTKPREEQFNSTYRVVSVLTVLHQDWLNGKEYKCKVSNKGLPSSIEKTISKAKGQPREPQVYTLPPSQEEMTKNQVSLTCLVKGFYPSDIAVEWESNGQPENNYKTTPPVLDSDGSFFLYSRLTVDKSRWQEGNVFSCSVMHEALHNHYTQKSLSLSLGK
light: EIVLTQSPATLSLSPGERATLSCRASENVGTYISWYQQKPGQAPRLLIYGASNRYTGIPARFSGSGSGTDFTLTISSLEPEDFAVYYCGESYGHLYTFGGGTKVEIKRTVAAPSVFIFPPSDEQLKSGTASVVCLLNNFYPREAKVQWKVDNALQSGNSQESVTEQDSKDSTYSLSSTLTLSKADYEKHKVYACEVTHQGLSSPVTKSFNRGEC
Take B6: the figures for the EC50 in assay [1] and in assay [2] were 3.85 nM and 0.57 nM, respectively.

B7: anti-CD47 monoclonal antibody (mAb) (antibody, V domains shown)
VH: EVQLVQSGAEVKKPGSSVKVSCKASGYSFTHHWIHWVRQAPGQGLEWMGMIDASDSETRLSQKFKDRVTITADKSTSTAYMELSSLRSEDTAVYYCARLGRYYFDYWGQGTTVTVSS
VL: EIVLTQSPATLSLSPGERATLSCRASENVGTYISWYQQKPGQAPRLLIYGASNRYTGIPARFSGSGSGTDFTLTISSLEPEDFAVYYCGESYGHLYTFGGGTKVEIKR
As for B7, the midpoint of the response in assay [1], the EC50, lay at 1.01 nM.

B8: bispecific antibody LAG3-E-LN (bispecific antibody)
heavy: not shown
light: EVQLVESGGGLVQPGGSLRLSCAASGYTVSSYCMGWFRQAPGKGREGVSAIDSDGSVSYADSVKGRFTISKDNSKNTLYLQMNSLRAEDTAVYFCAADLCWVDQDQGEYNTWGQGTLVTVSSEPKSSDKTHTSPPSPEIVLTQSPATLSLSPGERATLSCRASENVGTYISWYQQKPGQAPRLLIYGASNRYTGIPARFSGSGSGTDFTLTISSLEPEDFAVYYCGESYGHLYTFGGGTKVEIKRTVAAPSVFIFPPSDEQLKSGTASVVCLLNNFYPREAKVQWKVDNALQSGNSQESVTEQDSKDSTYSLSSTLTLSKADYEKHKVYACEVTHQGLSSPVTKSFNRGEC
B8 yielded a concentration giving a half-maximal response (EC50) in assay [3] of 0.448 nM.

B9: bispecific antibody LAG3-G15-LN (bispecific antibody)
heavy: not shown
light: EVQLVESGGGLVQPGGSLRLSCAASGYTVSSYCMGWFRQAPGKGREGVSAIDSDGSVSYADSVKGRFTISKDNSKNTLYLQMNSLRAEDTAVYFCAADLCWVDQDQGEYNTWGQGTLVTVSSGGGGSGGGGSGGGGSEIVLTQSPATLSLSPGERATLSCRASENVGTYISWYQQKPGQAPRLLIYGASNRYTGIPARFSGSGSGTDFTLTISSLEPEDFAVYYCGESYGHLYTFGGGTKVEIKRTVAAPSVFIFPPSDEQLKSGTASVVCLLNNFYPREAKVQWKVDNALQSGNSQESVTEQDSKDSTYSLSSTLTLSKADYEKHKVYACEVTHQGLSSPVTKSFNRGEC
For B9, in assay [3], the EC50 was determined as 0.535 nM.

B10: bispecific antibody LAG3-G9-LN (bispecific antibody)
heavy: not shown
light: EVQLVESGGGLVQPGGSLRLSCAASGYTVSSYCMGWFRQAPGKGREGVSAIDSDGSVSYADSVKGRFTISKDNSKNTLYLQMNSLRAEDTAVYFCAADLCWVDQDQGEYNTWGQGTLVTVSSGGGGSGGGSEIVLTQSPATLSLSPGERATLSCRASENVGTYISWYQQKPGQAPRLLIYGASNRYTGIPARFSGSGSGTDFTLTISSLEPEDFAVYYCGESYGHLYTFGGGTKVEIKRTVAAPSVFIFPPSDEQLKSGTASVVCLLNNFYPREAKVQWKVDNALQSGNSQESVTEQDSKDSTYSLSSTLTLSKADYEKHKVYACEVTHQGLSSPVTKSFNRGEC
The molecule B10 had an EC50 in assay [3] of 0.322 nM.

B11: bispecific antibody LAG3-E-LC (bispecific antibody)
heavy: not shown
light: EIVLTQSPATLSLSPGERATLSCRASENVGTYISWYQQKPGQAPRLLIYGASNRYTGIPARFSGSGSGTDFTLTISSLEPEDFAVYYCGESYGHLYTFGGGTKVEIKRTVAAPSVFIFPPSDEQLKSGTASVVCLLNNFYPREAKVQWKVDNALQSGNSQESVTEQDSKDSTYSLSSTLTLSKADYEKHKVYACEVTHQGLSSPVTKSFNRGECEPKSSDKTHTSPPSPEVQLVESGGGLVQPGGSLRLSCAASGYTVSSYCMGWFRQAPGKGREGVSAIDSDGSVSYADSVKGRFTISKDNSKNTLYLQMNSLRAEDTAVYFCAADLCWVDQDQGEYNTWGQGTLVTVSS
In turn, B11 came in with an EC50 in assay [3] of 0.552 nM.
